T1: TNFR1 (Homo sapiens, UniProt P19438)
T1 chain: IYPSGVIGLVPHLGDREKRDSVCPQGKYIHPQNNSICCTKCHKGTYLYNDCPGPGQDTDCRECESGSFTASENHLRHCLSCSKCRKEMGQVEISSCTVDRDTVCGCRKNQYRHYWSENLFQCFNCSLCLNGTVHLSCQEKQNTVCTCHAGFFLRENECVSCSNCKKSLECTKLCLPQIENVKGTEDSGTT

B1: F31G (designed binder)
chain: MTLQELLREEALRRAEAEAFRYALELLAEKGPEQKEYLLDLAEEIESQIRSLSGVDVEDVRKFLDKEWAWVKELLAEHPAELAEVEAARAARLAELRAEVEAKVAA
B2: L41V (designed binder)
chain: MTLQELLREEALRRAEAEAFRYALELLAEKFPEQKEYLLDVAEEIESQIRSLSGVDVEDVRKFLDKEWAWVKELLAEHPAELAEVEAARAARLAELRAEVEAKVAA
B3: K66I (designed binder)
chain: MTLQELLREEALRRAEAEAFRYALELLAEKFPEQKEYLLDLAEEIESQIRSLSGVDVEDVRKFLDIEWAWVKELLAEHPAELAEVEAARAARLAELRAEVEAKVAA
B4: Q34P (designed binder)
chain: MTLQELLREEALRRAEAEAFRYALELLAEKFPEPKEYLLDLAEEIESQIRSLSGVDVEDVRKFLDKEWAWVKELLAEHPAELAEVEAARAARLAELRAEVEAKVAA
B5: V85M (designed binder)
chain: MTLQELLREEALRRAEAEAFRYALELLAEKFPEQKEYLLDLAEEIESQIRSLSGVDVEDVRKFLDKEWAWVKELLAEHPAELAEMEAARAARLAELRAEVEAKVAA
B6: V60S (designed binder)
chain: MTLQELLREEALRRAEAEAFRYALELLAEKFPEQKEYLLDLAEEIESQIRSLSGVDVEDSRKFLDKEWAWVKELLAEHPAELAEVEAARAARLAELRAEVEAKVAA
B7: P79C (designed binder)
chain: MTLQELLREEALRRAEAEAFRYALELLAEKFPEQKEYLLDLAEEIESQIRSLSGVDVEDVRKFLDKEWAWVKELLAEHCAELAEVEAARAARLAELRAEVEAKVAA
B8: E44S (designed binder)
chain: MTLQELLREEALRRAEAEAFRYALELLAEKFPEQKEYLLDLAESIESQIRSLSGVDVEDVRKFLDKEWAWVKELLAEHPAELAEVEAARAARLAELRAEVEAKVAA
B9: R13Y (designed binder)
chain: MTLQELLREEALYRAEAEAFRYALELLAEKFPEQKEYLLDLAEEIESQIRSLSGVDVEDVRKFLDKEWAWVKELLAEHPAELAEVEAARAARLAELRAEVEAKVAA
B10: L39M (designed binder)
chain: MTLQELLREEALRRAEAEAFRYALELLAEKFPEQKEYLMDLAEEIESQIRSLSGVDVEDVRKFLDKEWAWVKELLAEHPAELAEVEAARAARLAELRAEVEAKVAA
B11: L74T (designed binder)
chain: MTLQELLREEALRRAEAEAFRYALELLAEKFPEQKEYLLDLAEEIESQIRSLSGVDVEDVRKFLDKEWAWVKETLAEHPAELAEVEAARAARLAELRAEVEAKVAA
B12: A90V (designed binder)
chain: MTLQELLREEALRRAEAEAFRYALELLAEKFPEQKEYLLDLAEEIESQIRSLSGVDVEDVRKFLDKEWAWVKELLAEHPAELAEVEAARVARLAELRAEVEAKVAA
B13: H78A (designed binder)
chain: MTLQELLREEALRRAEAEAFRYALELLAEKFPEQKEYLLDLAEEIESQIRSLSGVDVEDVRKFLDKEWAWVKELLAEAPAELAEVEAARAARLAELRAEVEAKVAA
B14: R21S (designed binder)
chain: MTLQELLREEALRRAEAEAFSYALELLAEKFPEQKEYLLDLAEEIESQIRSLSGVDVEDVRKFLDKEWAWVKELLAEHPAELAEVEAARAARLAELRAEVEAKVAA
B15: E10A (designed binder)
chain: MTLQELLREAALRRAEAEAFRYALELLAEKFPEQKEYLLDLAEEIESQIRSLSGVDVEDVRKFLDKEWAWVKELLAEHPAELAEVEAARAARLAELRAEVEAKVAA
B16: A98T (designed binder)
chain: MTLQELLREEALRRAEAEAFRYALELLAEKFPEQKEYLLDLAEEIESQIRSLSGVDVEDVRKFLDKEWAWVKELLAEHPAELAEVEAARAARLAELRTEVEAKVAA
B17: A76F (designed binder)
chain: MTLQELLREEALRRAEAEAFRYALELLAEKFPEQKEYLLDLAEEIESQIRSLSGVDVEDVRKFLDKEWAWVKELLFEHPAELAEVEAARAARLAELRAEVEAKVAA
B18: E33Q (designed binder)
chain: MTLQELLREEALRRAEAEAFRYALELLAEKFPQQKEYLLDLAEEIESQIRSLSGVDVEDVRKFLDKEWAWVKELLAEHPAELAEVEAARAARLAELRAEVEAKVAA
B19: E36M (designed binder)
chain: MTLQELLREEALRRAEAEAFRYALELLAEKFPEQKMYLLDLAEEIESQIRSLSGVDVEDVRKFLDKEWAWVKELLAEHPAELAEVEAARAARLAELRAEVEAKVAA
B20: A17W (designed binder)
chain: MTLQELLREEALRRAEWEAFRYALELLAEKFPEQKEYLLDLAEEIESQIRSLSGVDVEDVRKFLDKEWAWVKELLAEHPAELAEVEAARAARLAELRAEVEAKVAA
B21: E67N (designed binder)
chain: MTLQELLREEALRRAEAEAFRYALELLAEKFPEQKEYLLDLAEEIESQIRSLSGVDVEDVRKFLDKNWAWVKELLAEHPAELAEVEAARAARLAELRAEVEAKVAA
B22: P32M (designed binder)
chain: MTLQELLREEALRRAEAEAFRYALELLAEKFMEQKEYLLDLAEEIESQIRSLSGVDVEDVRKFLDKEWAWVKELLAEHPAELAEVEAARAARLAELRAEVEAKVAA
B23: R97M (designed binder)
chain: MTLQELLREEALRRAEAEAFRYALELLAEKFPEQKEYLLDLAEEIESQIRSLSGVDVEDVRKFLDKEWAWVKELLAEHPAELAEVEAARAARLAELMAEVEAKVAA
B24: L52D (designed binder)
chain: MTLQELLREEALRRAEAEAFRYALELLAEKFPEQKEYLLDLAEEIESQIRSDSGVDVEDVRKFLDKEWAWVKELLAEHPAELAEVEAARAARLAELRAEVEAKVAA
B25: M1F (designed binder)
chain: FTLQELLREEALRRAEAEAFRYALELLAEKFPEQKEYLLDLAEEIESQIRSLSGVDVEDVRKFLDKEWAWVKELLAEHPAELAEVEAARAARLAELRAEVEAKVAA
B26: K62S (designed binder)
chain: MTLQELLREEALRRAEAEAFRYALELLAEKFPEQKEYLLDLAEEIESQIRSLSGVDVEDVRSFLDKEWAWVKELLAEHPAELAEVEAARAARLAELRAEVEAKVAA
B27: R92Q (designed binder)
chain: MTLQELLREEALRRAEAEAFRYALELLAEKFPEQKEYLLDLAEEIESQIRSLSGVDVEDVRKFLDKEWAWVKELLAEHPAELAEVEAARAAQLAELRAEVEAKVAA
B28: E33W (designed binder)
chain: MTLQELLREEALRRAEAEAFRYALELLAEKFPWQKEYLLDLAEEIESQIRSLSGVDVEDVRKFLDKEWAWVKELLAEHPAELAEVEAARAARLAELRAEVEAKVAA
B29: E101S (designed binder)
chain: MTLQELLREEALRRAEAEAFRYALELLAEKFPEQKEYLLDLAEEIESQIRSLSGVDVEDVRKFLDKEWAWVKELLAEHPAELAEVEAARAARLAELRAEVSAKVAA
B30: D40G (designed binder)
chain: MTLQELLREEALRRAEAEAFRYALELLAEKFPEQKEYLLGLAEEIESQIRSLSGVDVEDVRKFLDKEWAWVKELLAEHPAELAEVEAARAARLAELRAEVEAKVAA
B31: E25M (designed binder)
chain: MTLQELLREEALRRAEAEAFRYALMLLAEKFPEQKEYLLDLAEEIESQIRSLSGVDVEDVRKFLDKEWAWVKELLAEHPAELAEVEAARAARLAELRAEVEAKVAA
B32: E73I (designed binder)
chain: MTLQELLREEALRRAEAEAFRYALELLAEKFPEQKEYLLDLAEEIESQIRSLSGVDVEDVRKFLDKEWAWVKILLAEHPAELAEVEAARAARLAELRAEVEAKVAA
B33: M1E (designed binder)
chain: ETLQELLREEALRRAEAEAFRYALELLAEKFPEQKEYLLDLAEEIESQIRSLSGVDVEDVRKFLDKEWAWVKELLAEHPAELAEVEAARAARLAELRAEVEAKVAA
B34: E16G (designed binder)
chain: MTLQELLREEALRRAGAEAFRYALELLAEKFPEQKEYLLDLAEEIESQIRSLSGVDVEDVRKFLDKEWAWVKELLAEHPAELAEVEAARAARLAELRAEVEAKVAA

The target of the assay is T1, TNFR1. Kind of assay: yeast display SC50.
B1: the “apparent Kd (screen)” value came to 0.869 nM.
Consider B2, for which the “apparent Kd (screen)” value came out at 0.869 nM.
Next, B3: 0.869 nM; B4: 0.49 nM; B5: 0.49 nM.
Next, B6: 0.446 nM; B7: 0.718 nM; B8: 13.8 nM.
Next, B9: 0.335 nM.
As to B10, the “apparent Kd (screen)” value came out at 1.4 nM.
With B11, the “apparent Kd (screen)” value stood at 2.48 nM.
As to B12, the “apparent Kd (screen)” value is 0.593 nM.
Next, B13: 0.539 nM.
As for B14, the “apparent Kd (screen)” value turned out to be 0.539 nM.
Consider B15, for which the “apparent Kd (screen)” value worked out at 5.31 nM.
Next, B16: 0.539 nM.
Next, B17: 0.446 nM; B18: 0.49 nM; B19: 0.49 nM.
Take B20: the “apparent Kd (screen)” value turned out to be 0.539 nM.
Next, B21: 1.4 nM; B22: 1.4 nM.
As for B23, the “apparent Kd (screen)” value was 0.539 nM.
Next, B24: 24.4 nM; B25: 0.593 nM.
Take B26: the “apparent Kd (screen)” value worked out at 0.539 nM.
Next, B27: 0.304 nM.
Next, B28: 0.593 nM.
Turning to B29, the “apparent Kd (screen)” value came to 0.956 nM.
Next, B30: 1.05 nM; B31: 0.368 nM.
Next, B32: 0.718 nM; B33: 0.593 nM; B34: 0.593 nM.

The values above are taken from publication PMC12416549 (2024).
